Experimental data published in US20040043420A1, “Method of identifying conformation-sensitive binding peptides and uses thereof” (priority 2003, published 2004).
Residue numbers refer to the chain shown, from its start. No end group written: not given here.

T1: ER α (UniProt P03372 1-595, limits assumed)
T1 construct: also called estrogen receptor α; ERα-ERE
T1 sequence (looked up): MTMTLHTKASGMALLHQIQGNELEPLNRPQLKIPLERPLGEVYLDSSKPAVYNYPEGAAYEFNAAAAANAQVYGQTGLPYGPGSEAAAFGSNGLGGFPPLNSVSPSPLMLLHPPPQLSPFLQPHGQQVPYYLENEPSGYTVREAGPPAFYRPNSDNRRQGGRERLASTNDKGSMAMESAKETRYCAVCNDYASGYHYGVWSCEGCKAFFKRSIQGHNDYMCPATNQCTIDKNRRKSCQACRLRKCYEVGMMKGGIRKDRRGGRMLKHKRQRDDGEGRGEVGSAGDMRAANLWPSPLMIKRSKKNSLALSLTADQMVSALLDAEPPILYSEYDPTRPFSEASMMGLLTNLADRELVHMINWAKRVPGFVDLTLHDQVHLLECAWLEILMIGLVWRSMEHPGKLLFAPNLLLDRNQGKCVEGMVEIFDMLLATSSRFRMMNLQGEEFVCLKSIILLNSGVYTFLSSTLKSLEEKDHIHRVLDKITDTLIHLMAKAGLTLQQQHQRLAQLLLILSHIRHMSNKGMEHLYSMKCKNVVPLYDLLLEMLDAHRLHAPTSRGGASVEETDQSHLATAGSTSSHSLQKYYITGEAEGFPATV

T2: estrogen receptor (ER) α as a carboxy-terminal fusion to the Gal4-activation domain (yeast, UniProt P03372 1-595, limits assumed)
T2 sequence (looked up): T1 sequence (looked up)

T3: Gal4 transcriptional activation domain (AD) fused in frame with AR (yeast), P10275
T3 chain: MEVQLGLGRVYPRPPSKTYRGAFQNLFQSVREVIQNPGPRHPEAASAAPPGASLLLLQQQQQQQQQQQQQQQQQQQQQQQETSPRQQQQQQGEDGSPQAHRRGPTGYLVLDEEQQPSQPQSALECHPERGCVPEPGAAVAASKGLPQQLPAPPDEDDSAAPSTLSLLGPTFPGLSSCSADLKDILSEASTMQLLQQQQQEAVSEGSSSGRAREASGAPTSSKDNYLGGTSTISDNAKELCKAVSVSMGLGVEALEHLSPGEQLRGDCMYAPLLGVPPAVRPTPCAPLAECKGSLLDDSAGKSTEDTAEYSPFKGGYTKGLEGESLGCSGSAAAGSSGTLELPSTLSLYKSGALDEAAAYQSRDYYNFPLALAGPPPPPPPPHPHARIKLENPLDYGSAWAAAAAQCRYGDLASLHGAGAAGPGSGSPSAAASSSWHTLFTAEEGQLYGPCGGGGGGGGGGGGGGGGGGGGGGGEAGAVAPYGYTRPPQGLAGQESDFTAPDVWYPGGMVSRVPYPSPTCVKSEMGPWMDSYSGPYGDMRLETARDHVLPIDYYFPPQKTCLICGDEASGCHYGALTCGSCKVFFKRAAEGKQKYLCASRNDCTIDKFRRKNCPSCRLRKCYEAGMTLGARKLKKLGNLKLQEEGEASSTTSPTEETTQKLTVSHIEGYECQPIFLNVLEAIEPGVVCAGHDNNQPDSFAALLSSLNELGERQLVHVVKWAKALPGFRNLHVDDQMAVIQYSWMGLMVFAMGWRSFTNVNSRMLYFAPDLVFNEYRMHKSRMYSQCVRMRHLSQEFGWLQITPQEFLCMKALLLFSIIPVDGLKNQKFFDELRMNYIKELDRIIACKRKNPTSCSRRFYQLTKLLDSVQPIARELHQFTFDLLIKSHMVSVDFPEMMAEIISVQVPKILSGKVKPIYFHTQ

T4: pVP16-AR (HSV), P10275
T4 chain: T3 chain

B1: B6F3 (peptide)
chain: MKLLSSIEQACDICRLKKLKCSKEKPKCAKCLKNNWECRYSPKTKRSPLTRAHLTEVESRLERLEQLFLLIFPREDLDMILKMDSLQDIKALLTGLFVQDNVNKDAVTDRLASVETDMPLTLRQHRISATSSSEESSNKGQRQLTVSEFFRATHLLRLLRTDSALDLQPS
B2: B5A2 (peptide)
chain: MKLLSSIEQACDICRLKKLKCSKEKPKCAKCLKNNWECRYSPKTKRSPLTRAHLTEVESRLERLEQLFLLIFPREDLDMILKMDSLQDIKALLTGLFVQDNVNKDAVTDRLASVETDMPLTLRQHRISATSSSEESSNKGQRQLTVSEFGCSAILRYLLRSPRDLDLQPS
B3: B4F6 (peptide)
chain: B2 chain with G150S, C151G, S152V, A153P, R156H, Y157M, R160M, S161L, R163S, D164S
B4: B2G1 (peptide)
chain: B1 chain with A152L, T153R, H154R, L156D, R160Q, T161D, D162S, S163F, A164L
B5: B8H3, P04386 1-147 (peptide)
chain: MKLLSSIEQACDICRLKKLKCSKEKPKCAKCLKNNWECRYSPKTKRSPLTRAHLTEVESRLERLEQLFLLIFPREDLDMILKMDSLQDIKALLTGLFVQDNVNKDAVTDRLASVETDMPLTLRQHRISATSSSEESSNKGQRQLTVSEFHSRLRVEVVSWGIGSTCSQANSGRISYDL
modifications: not checked
B6: B5G11, P04386 1-147 (peptide)
chain: MKLLSSIEQACDICRLKKLKCSKEKPKCAKCLKNNWECRYSPKTKRSPLTRAHLTEVESRLERLEQLFLLIFPREDLDMILKMDSLQDIKALLTGLFVQDNVNKDAVTDRLASVETDMPLTLRQHRISATSSSEESSNKGQRQLTVSEFRSSVFEQMYLCTGGSLDLQPS
modifications: not checked
B7: B8E9, P04386 1-147 (peptide)
chain: MKLLSSIEQACDICRLKKLKCSKEKPKCAKCLKNNWECRYSPKTKRSPLTRAHLTEVESRLERLEQLFLLIFPREDLDMILKMDSLQDIKALLTGLFVQDNVNKDAVTDRLASVETDMPLTLRQHRISATSSSEESSNKGQRQLTVSEFQQCMCAEVKSWLGGSLDLQPS
modifications: not checked

biological target: T1, ER α; assay: phage isolated on ERα-ERE; Estradiol

Row | Binder | binding result
1 | SRLEYYLRLGTYESR [10E] | binds
2 | SSCLREILLYGACSR (not fully specified; cysteine pairing not given here) [13E] | binds
3 | SSRLLACELMYEDADVCSR [8E] | binds
4 | SRLEELLLMDFWRSR [5E] | binds
5 | HSHSPLLMALLAPPGG [15E] | binds
6 | SSYKPHSLLEWHLLGGTSR [18E] | binds
7 | SSLRCYLSSSKVDQWACSR (not fully specified; cysteine pairing not given here) [17E] | binds
8 | SRSLLMDMLMSDDYVTVSR [7E] | binds
9 | SSKLWQLLSSPIDSR [6E] | binds
10 | SRLVALLKSPWSVSR [4E] | binds

biological target: T2, estrogen receptor (ER) α as a …; assay: cell-based or functional assay; further: test concentration or dose not given here

Row | Binder | Fold Induction (ligand-induced β-galactosidase, two-hybrid) [fold]
11 | B1 | 3
12 | B2 | 3
13 | B3 | 5
14 | B4 | 12

Biological target: T3, Gal4 transcriptional activation domain …
Assay: cell-based or functional assay

Row | Binder | Fold induction (yeast two-hybrid) [fold] | β-galactosidase activity (yeast two-hybrid), CPA | β-galactosidase activity (yeast two-hybrid), DHT | β-galactosidase activity (yeast two-hybrid), No Lig | β-galactosidase activity (yeast two-hybrid), RU
15 | B5 | 22 | 0.393 | 3.81 | 0.174 | 0
16 | B6 | 6 | 0.973 | 3.96 | 0.638 | 0.9
17 | B7 | 4 | 0.563 | 1.75 | 0.499 | 0.8

Biological target: T4, pVP16-AR (HSV), P10275
Assay: cell-based or functional assay

Row | Binder | luciferase (mammalian two-hybrid, Huh-7), CYP. (Relative Light Units) | luciferase (mammalian two-hybrid, Huh-7), DHT (Relative Light Units) | luciferase (mammalian two-hybrid, Huh-7), MPA (Relative Light Units) | luciferase (mammalian two-hybrid, Huh-7), RU486 (Relative Light Units) | luciferase (mammalian two-hybrid, Huh-7), no compound (Relative Light Units)
18 | B5 | 10.5 | 11.6 | 11.3 | 3.88 | 0.132
19 | B6 | 4.46 | 15.8 | 8.03 | 0.105 | 0.0503
20 | B7 | 16 | 19.6 | 18.5 | 10.2 | 0.209

biological target: T1, ER α; assay: phage isolated on ERα on plastic; Tamoxifen

Row | Binder | binding result
21 | SSYLTLGKSMMAISR [16PT] | binds
22 | SSKYVFGFQVAGGSR [7PT] | binds
23 | SSSPWWSFNLRDMSR [12PT] | binds
24 | SSSWSYGKPTFLSSR [9PT] | binds
25 | SSWPYLPKREEWASR [13PT] | binds
26 | SSWHSRWDLALGFSR [17PT] | binds
27 | SSGYWGGWDYGAGSR [18PT] | binds
28 | SSRMGHVWYDWTFSR [5PT] | binds
29 | SSGWIEQKLRGSFSR [14PT] | binds
30 | SSWAGIKFGKPPHSR [8PT] | binds
31 | SSGRYDPFVLNAASR [11PT] | binds
32 | SRDNCGAGLWAGCSR [19PT] | binds
33 | SSSATSIKVQYQISR [15PT] | binds
34 | SRDTGDMWWGRGGSR [10PT] | binds
35 | SSRLLGDFGGSVVSR [6PT] | binds
